The text below walks through data of patent US20230057263A1 (CYTOMX THERAPEUTICS, published 2023).

No end group written: not given here. *: point of attachment. Biotin = O=C1N[C@H]2[C@H](CS[C@H]2CCCCC(=O)*)N1; code X = not defined here

Assay in all cases: Luminex bead assay, 1 ug/ml antibody [Cont.]
The target in one experiment is T1, B X QDGNEEMAGITQTP (reading uncertain).
T1 construct: row 22 of the chart; 14 residues; also called alanine-scan peptide G8A
T1 peptide: {Biotin-code X}-QDGNEEMAGITQTP
Here is the method:
(§1) A set of experiments was performed to map the epitope recognized by the anti-CD3ε antibodies. In these experiments, the anti-CD3ε antibodies were assessed for binding to a collection of overlapping 15-mer peptides spanning amino acids 1-27 of human CD3ε protein using a Luminex bead assay. Control CD3 proteins, control peptides, or the test peptides were immobilized on Luminex beads and incubated with a panel of anti-CD3 antibodies. Binding of the anti-CD3 antibodies to the peptide/protein immobilized on the Luminex bead was detected by R-Phycoerythrin conjugated secondary antibody.
(§2) Recombinant CD3 proteins (human CD3d/e heterodimer and cynomolgus CD3-epsilon (Sinobiological)) and control peptides (#p1, #p2, and #p3) were conjugated to Luminex beads using standard EDC/Sulfo-NHS chemistry. The 15-mer test peptides were synthesized as biotinylated peptides at JPT Peptide Technologies Gmbh and were immobilized on streptavidin-conjugated Luminex beads that were made using standard EDC/Sulfo-NHS chemistry and streptavidin (Invitrogen Cat. No. 434301 lot 1626028A). The Luminex beads with immobilized peptides or reagents were incubated with 50 ul of a panel of anti-CD3 antibodies (1 ug/ml) for one hour at room temperature, washed two times, incubated with mixture of anti-human and anti-mouse IgG-RPE (Jackson Immunoresearch 109-116-097 and Southern Biotech 1030-09, respectively) for 30 mins at RT, washed three times, and analyzed in the Luminex instrument to assess the level of bound anti-CD3 antibodies.

The target in another experiment is T2, BSA alone (bovine, UniProt P02769).
T2 construct: carrier protein without peptide
T2 sequence (P02769 25-607 limits assumed): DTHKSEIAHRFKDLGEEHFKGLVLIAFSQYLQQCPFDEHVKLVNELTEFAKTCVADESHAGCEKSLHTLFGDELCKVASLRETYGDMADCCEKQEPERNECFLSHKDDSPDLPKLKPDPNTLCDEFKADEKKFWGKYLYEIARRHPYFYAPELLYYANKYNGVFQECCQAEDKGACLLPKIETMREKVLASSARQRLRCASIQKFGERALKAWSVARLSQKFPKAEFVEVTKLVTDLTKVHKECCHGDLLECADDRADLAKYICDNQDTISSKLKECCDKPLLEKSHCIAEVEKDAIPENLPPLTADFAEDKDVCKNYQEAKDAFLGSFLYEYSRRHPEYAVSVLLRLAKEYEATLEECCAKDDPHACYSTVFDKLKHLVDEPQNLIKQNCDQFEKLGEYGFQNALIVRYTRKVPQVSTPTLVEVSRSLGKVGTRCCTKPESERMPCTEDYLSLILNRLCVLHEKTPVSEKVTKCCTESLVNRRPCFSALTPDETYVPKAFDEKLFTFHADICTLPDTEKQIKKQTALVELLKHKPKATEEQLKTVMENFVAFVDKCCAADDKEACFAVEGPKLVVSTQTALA
Here is the method:
as §1, §2

The next experiment concerns the target T3, B X GGITQTPYKVSISGT (reading uncertain).
T3 construct: row 9 of the chart; also called biotinylated 15-mer, residues 8-22
T3 peptide: {Biotin-code X}-GGITQTPYKVSISGT
Here is the method: as §1, §2

A further experiment addresses T4, B X DGNEEMGGITQTPYK (reading uncertain).
T4 construct: row 3 of the chart; also called biotinylated 15-mer, residues 2-16
T4 peptide: {Biotin-code X}-DGNEEMGGITQTPYK
The procedure: as §1, §2

The target of a further experiment is T5, B X MGGITQTPYKVSISG (reading uncertain).
T5 construct: row 8 of the chart; also called biotinylated 15-mer, residues 7-21
T5 peptide: {Biotin-code X}-MGGITQTPYKVSISG
The procedure:
as §1, §2

The target in experiment [1] is T6, (H2N-KEFSELEQSGYYVCYPRGSNPEDA-OH) vCD3e #p3-BSA (conjugated to BSA).
T6 construct: also called control peptide #p3
T6 peptide: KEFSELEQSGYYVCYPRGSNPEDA
Here is the method:
as §1, §2

The next experiment has as its target T7, vCD3e #p1 peptide.
T7 construct: also called control peptide #p1
Here is the method:
as §1, §2

A further experiment concerns the target T8, B X QAGNEEMGGITQTP (reading uncertain).
T8 construct: row 16 of the chart; also called alanine-scan peptide D2A
T8 peptide: {Biotin-code X}-QAGNEEMGGITQTP
Here is the method: as §1, §2

For the next experiment, the target named is T9, B X GITQTPYKVSISGTT (reading uncertain).
T9 construct: row 10 of the chart; also called biotinylated 15-mer, residues 9-23
T9 peptide: {Biotin-code X}-GITQTPYKVSISGTT
Here is the method:
as §1, §2

B1: 6d59 (antibody, V domains shown)
VH: QVHLVESGGGVVQPGRSLRLSCAASGFKFRSYGMHWVRQAPGKGLEWVAIIWYDGSKRYYADSVKGRFTISRDNSKNTLYLQMSSLRAEDTAVYYCARDLITGTTDYWGQGTLVTVSS
VL: DVVMTQSPLSLPVTLGQPASISCRSSRSLVYSDGNTHLIWFQQRPGQSPRRLIYRVSNRVSGVPDRFSGSGSGTDFTLKISRVEAEDVGVYYCLQGAHWPYTFGQGTKLEIKR
notes: also called 6d59.1; VCD3-6d59.1
Turning to B1, the Luminex signal in the experiment with B X QDGNEEMAGITQTP amounted to 2510; with BSA alone, 420; with B X GGITQTPYKVSISGT, 29.5; with B X DGNEEMGGITQTPYK it was 404; with B X MGGITQTPYKVSISG, 26.5; in [1], 473. In addition, the Luminex signal is 20300 with vCD3e #p1 peptide, 45 in the experiment with B X QAGNEEMGGITQTP and 43 with B X GITQTPYKVSISGTT.
